According to article PMC9411612, “Single residue modulators of amyloid formation in the N-terminal P1-region of α-synuclein” (Nature Communications, 2022):
Each block holds one binder with its values, some of them ahead of it.

Key:
[1] = target: T1, ΔP1 αSyn (alpha-synuclein with residues 36-42 deleted) (UniProt P37840 1-140, deletion of the seven-residue P1 sequence 36GVLYVGS42 (ΔP1)); experiment: cell-based or functional assay
[2] = target: T2, wild-type alpha-synuclein (WT αSyn) (UniProt P37840 1-140); experiment: native MS; native nESI-MS; 20 µM protein, αSyn:P1-peptide 1:10, 20 mM ammonium acetate pH 7.5; settings: both partners purified
[3] = target: T1, ΔP1 αSyn (alpha-synuclein with residues …); experiment: as above; settings: both partners purified
[4] = target: T2, wild-type alpha-synuclein (WT αSyn); experiment: NMR paramagnetic relaxation enhancement (PRE); 100 µM 15N-labelled protein with 100 µM 14N MTSL-labelled peptide; diamagnetic spectra after 1 mM ascorbic acid; 20 mM Tris-HCl, pH 7.5, 200 mM NaCl, 15 °C; settings: both partners purified
[5] = target: T1, ΔP1 αSyn (alpha-synuclein with residues …); experiment: as above; settings: both partners purified

t50 of amyloid formation (ThT fluorescence), 100 µM ΔP1 with P1-peptide in 10-fold molar excess, pH 7.5 (aggregation begins within 110 h at equimolar ratio) [1]: 14.4 h
stoichiometry N [2]: 1
stoichiometry N [3]: 1
B1: P1-peptide (Ac-KTKE-GVLYVGS-KTKE-NH2) (peptide)
peptide: Ac-KTKEGVLYVGSKTKE-NH2
notes: also called peptide-P1; peptide P1; source: synthetic peptide, bought: Severn Biotech Ltd

binding result [4]: binds
binding result [5]: binds
B2: MTSL-labelled Cys-P1-peptide (Ac-C-KTKE-GVLYVGS-KTKE-NH2) (peptide)
peptide: CKTKEGVLYVGSKTKE
modifications: N-terminal acetylation; MTSL on the thiol group of the introduced N-terminal cysteine; C-terminal amidation
notes: cysteine introduced at the N-terminus for MTSL labelling; observed mass 1995.07 Da after labelling; also called MTSL-labelled peptide-P1; 14N P1-peptide N-terminally labelled with MTSL; source: synthetic peptide, bought: Severn Biotech Ltd; labelled with MTSL, reverse phase HPLC
